# Where two headings read alike, the source gives them in different places.
# T1: Human-NKP30-His (Kactus, cat: NKP-HM430) (human, UniProt O14931 19-138, limits assumed)
# T1 construct: also called NKP30 protein; NKP30-his protein; not shown: His tag
# T1 sequence (looked up): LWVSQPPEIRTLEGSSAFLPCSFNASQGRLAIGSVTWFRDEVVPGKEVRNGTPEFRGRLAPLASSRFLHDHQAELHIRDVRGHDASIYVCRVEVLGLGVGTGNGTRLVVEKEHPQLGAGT
# Experiments:
# [1] = molecular target: T1, Human-NKP30-His (Kactus, cat: NKP-HM430); test: ELISA: Human-NKP30-His coated, antibody titrated 3-fold from 10 µg/mL, HRP goat anti-human IgG-Fc, OD450-OD570
# Procedure: (§1) Human-NKP30-His (Kactus, cat: NKP-HM430) was diluted to […] with PBS buffer at pH 7.4, added into the 96-well ELISA plate at 100 μL per well, coated overnight at 4° C., and blocked with 1% BSA blocking solution for 1 hour. The plate was washed 3 times with PBST, and the constructed antibodies were diluted to 10 μg/mL with 0.5% BSA sample diluent as the starting concentration, and then diluted by 3-fold gradient (11 gradients in total). A negative control (blank well and IgG1 isotype control) and a positive control were set, and the positive control was a NKP30 humanized antibody (sequence shown in SEQ ID No. 28), and incubated at 37° C. for 1 h at 100 μL per well. The plate was washed 3 times with PBST, and then HRP-labelled goat anti-human IgG-Fc was diluted with the sample diluent at 1:20000. 100 μL was added into each well, and incubated at room temperature for 1 hour. The plate was washed 4 times with PBST, and 100 μL of TMB substrate was added into each well, and incubated at room temperature without light for 10 minutes. 100 μL of 1 M HCl solution was added into each well to terminate the color development reaction. The absorbance value of each well in the 96-well plate was determined by selecting the wavelength of 450 nm and the reference wavelength of 570 nm on a multifunctional enzyme marker, and the absorbance value (OD)=OD₄₅₀ₙₘ−OD₅₇₀ₙₘ. The logarithm of the concentration of the constructed antibody was taken as the abscissa, and the measured absorbance value of each well was taken as the ordinate, and the Sigmoidaldose-response (Variable Slope) method (GraphPad Prism software, GraphPad Software, San Diego, California) was selected for nonlinear regression to obtain the binding curve of the target antibody to NKP30.
# Human-GPC3-His [2] = molecular target: T2, Human-GPC3-His (human, UniProt P51654 25-559, limits assumed); test: ELISA: Human-GPC3-His coated at 0.5 µg/mL, antibody titrated 3-fold from 10 µg/mL, HRP goat anti-human IgG-Fc, OD450-OD570
# T2 construct: Coated on the ELISA plate; also called GPC-3 protein; GPC3 protein; not shown: His tag
# Procedure: (§2) Human-GPC3-His was diluted to 0.5 μg/mL with PBS buffer at pH 7.4, added into the 96-well ELISA plate at 100 μL per well, coated overnight at 4° C., and blocked with 1% BSA blocking solution for 1 hour. The plate was washed 3 times with PBST, and the constructed antibody was diluted to 10 μg/mL with 0.5% BSA sample diluent as the starting concentration, and then diluted by 3-fold gradient (11 gradients in total) and incubated at 37° C. for 1 h at 100 μL per well. The plate was washed 3 times with PBST, and then HRP-labelled goat anti-human IgG-Fc was diluted with the sample diluent at 1:20000. 100 μL was added into each well, and incubated at room temperature for 1 hour. A negative control (blank well and IgG1 isotype control) and a positive control were set, and the positive control was a GPC-3 and CD3 bispecial antibody from the literature Hs, A, et al. “Engineering a bispecific antibody with a common light chain: Identification and optimization of an anti-CD3 epsilon and anti-GPC3 bispecific antibody, ERY974.” Methods 154 (2019): 10-20. (The GPC-3 and CD3 bispecial antibody sequence consists of SEQ ID No. 22, SEQ ID No. 23, and SEQ ID No. 24). The plate was washed 4 times with PBST, and 100 μL of TMB substrate was added into each well, and incubated at room temperature without light for 10 minutes. 100 μL of 1 M HCl solution was added into each well to terminate the color development reaction. The absorbance value of each well in the 96-well plate was determined by selecting the wavelength of 450 nm and the reference wavelength of 570 nm on a multifunctional enzyme marker, and the absorbance value (OD)=OD₄₅₀ₙₘ−OD₅₇₀ₙₘ. The logarithm of the concentration of the constructed antibody was taken as the abscissa, and the measured absorbance value of each well was taken as the ordinate, and the Sigmoidaldose-response (Variable Slope) method (GraphPad Prism software, GraphPad Software, San Diego, California) was selected for nonlinear regression to obtain the binding curve of the target antibody to the GPC-3 protein.
# [3] = molecular target: T1, Human-NKP30-His (Kactus, cat: NKP-HM430); test: ELISA: Human-NKP30-His coated, antibody titrated 3-fold from 10 µg/mL, HRP goat anti-human IgG-Fc, OD450-OD570; remark: listed apart in the source
# Procedure: as §1
# Human-GPC3-His [4] = molecular target: T2, Human-GPC3-His; test: ELISA: Human-GPC3-His coated at 0.5 µg/mL, antibody titrated 3-fold from 10 µg/mL, HRP goat anti-human IgG-Fc, OD450-OD570; remark: listed apart in the source
# Procedure: as §2
# T2 sequence (P51654 25-559 limits assumed): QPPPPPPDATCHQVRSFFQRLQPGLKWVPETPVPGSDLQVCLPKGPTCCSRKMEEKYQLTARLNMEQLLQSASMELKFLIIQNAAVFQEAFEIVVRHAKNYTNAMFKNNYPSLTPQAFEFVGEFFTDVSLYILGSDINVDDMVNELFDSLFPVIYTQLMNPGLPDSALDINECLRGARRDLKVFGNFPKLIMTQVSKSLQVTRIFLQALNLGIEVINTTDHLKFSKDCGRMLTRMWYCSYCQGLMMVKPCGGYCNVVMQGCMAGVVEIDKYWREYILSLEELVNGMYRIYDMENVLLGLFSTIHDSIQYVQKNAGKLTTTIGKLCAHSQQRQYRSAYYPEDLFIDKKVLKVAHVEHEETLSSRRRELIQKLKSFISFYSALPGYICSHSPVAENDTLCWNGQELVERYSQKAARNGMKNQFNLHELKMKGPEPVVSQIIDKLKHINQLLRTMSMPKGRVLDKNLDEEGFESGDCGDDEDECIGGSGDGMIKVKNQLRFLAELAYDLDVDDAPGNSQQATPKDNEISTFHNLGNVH
Binder,EC50 (read off the curve) [1] [µg/mL],EC50 (read off the curve) (Human-GPC3-His [2]) [µg/mL],EC50 (read off the curve) [3] [µg/mL],EC50 (read off the curve) (Human-GPC3-His [4]) [µg/mL]
"GN15-B (bispecific antibody, human IgG1, kappa, Trifunctional antibody against GPC-3 and NKP30 with IL-15 and IL-15Rα sushi between CH1 and CH2; also called constructed antibody GN15-B; multifunctional antibody) light: DVVMTQSPLSLPVTPGEPASISCRSSQSLVHSNRNTYLHWYLQKPGQSPQLLIYKVSNRFSGVPDRFSGSGSGTDFTLKISRVEAEDVGVYYCSQNTHVPPTFGQGTKLEIKRTVAAPSVFIFPPSDEQLKSGTASVVCLLNNFYPREAKVQWKVDNALQSGNSQESVTEQDSKDSTYSLSSTLTLSKADYEKHKVYACEVTHQGLSSPVTKSFNRGEC heavy 1: not shown heavy 2: EVQLVESGGGLVQPGGSLRLSCAASGITFSRSVMGWFRQAPGKLRELVAGITSDDNTDYADSVKGRFTISRDNSKNTLYLQMNSLRAEDTAVYYCNILPDSRLGWGQGTLVTVSSGGGGSGGGGSGGGGSQVQLVQSGAEVKKPGASVKVSCKASGYTFTDYEMHWVRQAPGQGLEWMGALDPKTGDTAYSQKFKGRVTLTADKSTSTAYMELSSLTSEDTAVYYCTRFYSYTYWGQGTLVTVSSASTKGPSVFPLAPSSKSTSGGTAALGCLVKDYFPEPVTVSWNSGALTSGVHTFPAVLQSSGLYSLSSVVTVPSSSLGTQTYICNVNHKPSNTKVDKKVEPKSCDKTHTCPPCPGGGGSGGGGSPALLLLLLLRPPATRGITCPPPMSVEHADIWVKSYSLYSRERYICNSGFKRKAGTSSLTECVLNKATNVAHWTTPSLKCIRDPALVHQRPAPPSTVTTAGVTPQPESLSPSGKEGGGGSGGGGSAPELLGGPSVFLFPPKPKDTLMISRTPEVTCVVVDVSHEDPEVKFNWYVDGVEVHNAKTKPREEQYNSTYRVVSVLTVLHQDWLNGKEYKCKVSNKALPAPIEKTISKAKGQPREPQVYTLPPSRDELTKNQVSLTCLVKGFYPSDIAVEWESNGQPENNYKTTPPVLDSDGSFFLASKLTVDKSRWQQGNVFSCSVMHEALHNHYTQKSLSLSPGK",~0.03,,,~0.03
"GN15-C (bispecific antibody, human IgG1, kappa, Trifunctional antibody against GPC-3 and NKP30 with IL-15 and IL-15Rα sushi between CH1 and CH2; also called constructed antibody GN15-C; multifunctional antibody) light: DVVMTQSPLSLPVTPGEPASISCRSSQSLVHSNRNTYLHWYLQKPGQSPQLLIYKVSNRFSGVPDRFSGSGSGTDFTLKISRVEAEDVGVYYCSQNTHVPPTFGQGTKLEIKRTVAAPSVFIFPPSDEQLKSGTASVVCLLNNFYPREAKVQWKVDNALQSGNSQESVTEQDSKDSTYSLSSTLTLSKADYEKHKVYACEVTHQGLSSPVTKSFNRGECGGGGSGGGGSGGGGSGGGGSEVQLVESGGGLVQPGGSLRLSCAASGITFSRSVMGWFRQAPGKLRELVAGITSDDNTDYADSVKGRFTISRDNSKNTLYLQMNSLRAEDTAVYYCNILPDSRLGWGQGTLVTVSS heavy 1: not shown heavy 2: QVQLVQSGAEVKKPGASVKVSCKASGYTFTDYEMHWVRQAPGQGLEWMGALDPKTGDTAYSQKFKGRVTLTADKSTSTAYMELSSLTSEDTAVYYCTRFYSYTYWGQGTLVTVSSASTKGPSVFPLAPSSKSTSGGTAALGCLVKDYFPEPVTVSWNSGALTSGVHTFPAVLQSSGLYSLSSVVTVPSSSLGTQTYICNVNHKPSNTKVDKKVEPKSCDKTHTCPPCPGGGGSGGGGSPALLLLLLLRPPATRGITCPPPMSVEHADIWVKSYSLYSRERYICNSGFKRKAGTSSLTECVLNKATNVAHWTTPSLKCIRDPALVHQRPAPPSTVTTAGVTPQPESLSPSGKEGGGGSGGGGSAPELLGGPSVFLFPPKPKDTLMISRTPEVTCVVVDVSHEDPEVKFNWYVDGVEVHNAKTKPREEQYNSTYRVVSVLTVLHQDWLNGKEYKCKVSNKALPAPIEKTISKAKGQPREPQVYTLPPSRDELTKNQVSLTCLVKGFYPSDIAVEWESNGQPENNYKTTPPVLDSDGSFFLASKLTVDKSRWQQGNVFSCSVMHEALHNHYTQKSLSLSPGK",~0.05,,,~0.03

# More lines, now with the values ahead:
EC50 (read off the curve) [1] [µg/mL],EC50 (read off the curve) (Human-GPC3-His [2]) [µg/mL],EC50 (read off the curve) [3] [µg/mL],EC50 (read off the curve) (Human-GPC3-His [4]) [µg/mL],Binder
~0.03,~0.04,,,"GN15-D (bispecific antibody, human IgG1, kappa, Trifunctional antibody against GPC-3 and NKP30 with IL-15 and IL-15Rα sushi between CH1 and CH2; also called constructed antibody GN15-D; multifunctional antibody) light: DVVMTQSPLSLPVTPGEPASISCRSSQSLVHSNRNTYLHWYLQKPGQSPQLLIYKVSNRFSGVPDRFSGSGSGTDFTLKISRVEAEDVGVYYCSQNTHVPPTFGQGTKLEIKRTVAAPSVFIFPPSDEQLKSGTASVVCLLNNFYPREAKVQWKVDNALQSGNSQESVTEQDSKDSTYSLSSTLTLSKADYEKHKVYACEVTHQGLSSPVTKSFNRGEC heavy 1: not shown heavy 2: QVQLVQSGAEVKKPGASVKVSCKASGYTFTDYEMHWVRQAPGQGLEWMGALDPKTGDTAYSQKFKGRVTLTADKSTSTAYMELSSLTSEDTAVYYCTRFYSYTYWGQGTLVTVSSASTKGPSVFPLAPSSKSTSGGTAALGCLVKDYFPEPVTVSWNSGALTSGVHTFPAVLQSSGLYSLSSVVTVPSSSLGTQTYICNVNHKPSNTKVDKKVEPKSCDKTHTCPPCPGGGGSGGGGSPALLLLLLLRPPATRGITCPPPMSVEHADIWVKSYSLYSRERYICNSGFKRKAGTSSLTECVLNKATNVAHWTTPSLKCIRDPALVHQRPAPPSTVTTAGVTPQPESLSPSGKEGGGGSGGGGSAPELLGGPSVFLFPPKPKDTLMISRTPEVTCVVVDVSHEDPEVKFNWYVDGVEVHNAKTKPREEQYNSTYRVVSVLTVLHQDWLNGKEYKCKVSNKALPAPIEKTISKAKGQPREPQVYTLPPSRDELTKNQVSLTCLVKGFYPSDIAVEWESNGQPENNYKTTPPVLDSDGSFFLASKLTVDKSRWQQGNVFSCSVMHEALHNHYTQKSLSLSPGKGGGGSGGGGSGGGGSGGGGSEVQLVESGGGLVQPGGSLRLSCAASGITFSRSVMGWFRQAPGKLRELVAGITSDDNTDYADSVKGRFTISRDNSKNTLYLQMNSLRAEDTAVYYCNILPDSRLGWGQGTLVTVSS"
,~0.06,~0.04,,"GN15-E (bispecific antibody, human IgG1, kappa, Trifunctional antibody against GPC-3 and NKP30 with IL-15 and IL-15Rα sushi between CH1 and CH2; also called constructed antibody GN15-E; multifunctional antibody) light 1: EVQLVESGGGLVQPGGSLRLSCAASGITFSRSVMGWFRQAPGKLRELVAGITSDDNTDYADSVKGRFTISRDNSKNTLYLQMNSLRAEDTAVYYCNILPDSRLGWGQGTLVTVSSGGGGSGGGGSGGGGSQVQLVQSGAEVKKPGASVKVSCKASGYTFTDYEMHWVRQAPGQGLEWMGALDPKTGDTAYSQKFKGRVTLTADKSTSTAYMELSSLTSEDTAVYYCTRFYSYTYWGQGTLVTVSSRTVAAPSVFIFPPSDEQLKSGTASVVCLLNNFYPREAKVQWKVDNALQSGNSQESVTEQDSKDSTYSLSSTLTLSKADYEKHKVYACEVTHQGLSSPVTKSFNRGEC heavy 1: not shown heavy 2: QVQLVQSGAEVKKPGASVKVSCKASGYTFTDYEMHWVRQAPGQGLEWMGALDPKTGDTAYSQKFKGRVTLTADKSTSTAYMELSSLTSEDTAVYYCTRFYSYTYWGQGTLVTVSSASTKGPSVFPLAPSSKSTSGGTAALGCLVKDYFPEPVTVSWNSGALTSGVHTFPAVLQSSGLYSLSSVVTVPSSSLGTQTYICNVNHKPSNTKVDKKVEPKSCDKTHTCPPCPGGGGSGGGGSPALLLLLLLRPPATRGITCPPPMSVEHADIWVKSYSLYSRERYICNSGFKRKAGTSSLTECVLNKATNVAHWTTPSLKCIRDPALVHQRPAPPSTVTTAGVTPQPESLSPSGKEGGGGSGGGGSAPELLGGPSVFLFPPKPKDTLMISRTPEVTCVVVDVSHEDPEVKFNWYVDGVEVHNAKTKPREEQYNSTYRVVSVLTVLHQDWLNGKEYKCKVSNKALPAPIEKTISKAKGQPREPQVYTLPPSRDELTKNQVSLTCLVKGFYPSDIAVEWESNGQPENNYKTTPPVLDSDGSFFLASKLTVDKSRWQQGNVFSCSVMHEALHNHYTQKSLSLSPGK light 2: DVVMTQSPLSLPVTPGEPASISCRSSQSLVHSNRNTYLHWYLQKPGQSPQLLIYKVSNRFSGVPDRFSGSGSGTDFTLKISRVEAEDVGVYYCSQNTHVPPTFGQGTKLEIKRTVAAPSVFIFPPSDEQLKSGTASVVCLLNNFYPREAKVQWKVDNALQSGNSQESVTEQDSKDSTYSLSSTLTLSKADYEKHKVYACEVTHQGLSSPVTKSFNRGEC"

# Reference: patent US20240218065A1 (SHENGHE CHINA BIOPHARMACEUTICAL, published 2024)
